The values below come from US20080020399A1.

Data set [1] deals with biotinylated hIRS-1-p30 (domain D516-P777 of human IRS-1).
The target of data set [2] is rat liver insulin receptor purified by wheat germ lectin affinity chromatography (rat) (UniProt P15127). Nature of the data set: cell-based or functional assay.
rat liver insulin receptor purified by wheat germ lectin affinity chromatography (rat), sequence (P15127 27-1383 limits assumed, form in doubt): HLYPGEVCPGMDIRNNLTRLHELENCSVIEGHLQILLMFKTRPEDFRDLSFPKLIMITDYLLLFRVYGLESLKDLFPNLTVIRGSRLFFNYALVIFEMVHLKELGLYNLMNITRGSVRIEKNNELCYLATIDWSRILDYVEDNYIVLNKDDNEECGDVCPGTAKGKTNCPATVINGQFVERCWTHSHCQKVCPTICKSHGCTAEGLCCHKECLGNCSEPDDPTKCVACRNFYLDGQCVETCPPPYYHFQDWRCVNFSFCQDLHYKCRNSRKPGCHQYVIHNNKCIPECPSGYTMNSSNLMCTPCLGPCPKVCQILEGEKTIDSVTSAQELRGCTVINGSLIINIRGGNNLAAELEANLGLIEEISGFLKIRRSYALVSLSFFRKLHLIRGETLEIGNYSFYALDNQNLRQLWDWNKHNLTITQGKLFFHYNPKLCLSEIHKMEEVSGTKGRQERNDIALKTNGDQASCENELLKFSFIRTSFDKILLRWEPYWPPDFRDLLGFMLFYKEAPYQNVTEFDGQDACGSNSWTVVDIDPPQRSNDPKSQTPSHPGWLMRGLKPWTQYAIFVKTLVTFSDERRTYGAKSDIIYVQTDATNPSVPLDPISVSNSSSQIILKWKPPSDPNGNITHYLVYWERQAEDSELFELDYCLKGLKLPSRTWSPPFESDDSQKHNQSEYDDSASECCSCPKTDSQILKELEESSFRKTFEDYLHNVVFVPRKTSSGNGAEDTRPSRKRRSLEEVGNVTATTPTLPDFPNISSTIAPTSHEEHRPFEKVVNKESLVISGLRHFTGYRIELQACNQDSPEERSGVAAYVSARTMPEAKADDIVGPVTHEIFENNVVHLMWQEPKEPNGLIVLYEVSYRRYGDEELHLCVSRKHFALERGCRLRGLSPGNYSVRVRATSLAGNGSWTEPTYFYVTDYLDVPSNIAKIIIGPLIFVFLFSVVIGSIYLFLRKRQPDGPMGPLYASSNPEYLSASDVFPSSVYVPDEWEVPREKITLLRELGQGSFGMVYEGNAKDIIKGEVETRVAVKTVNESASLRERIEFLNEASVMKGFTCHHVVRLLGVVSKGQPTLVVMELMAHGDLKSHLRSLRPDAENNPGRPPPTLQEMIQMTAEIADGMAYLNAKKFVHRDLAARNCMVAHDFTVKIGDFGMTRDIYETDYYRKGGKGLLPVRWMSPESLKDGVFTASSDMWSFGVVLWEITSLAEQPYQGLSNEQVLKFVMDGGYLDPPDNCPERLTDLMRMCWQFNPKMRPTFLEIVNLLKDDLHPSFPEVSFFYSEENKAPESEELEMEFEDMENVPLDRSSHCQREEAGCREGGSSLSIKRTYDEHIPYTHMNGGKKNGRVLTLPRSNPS

biotinylated hIRS-1-p30 (domain D516-P777 of human IRS-1), sequence (chain, as listed by the source): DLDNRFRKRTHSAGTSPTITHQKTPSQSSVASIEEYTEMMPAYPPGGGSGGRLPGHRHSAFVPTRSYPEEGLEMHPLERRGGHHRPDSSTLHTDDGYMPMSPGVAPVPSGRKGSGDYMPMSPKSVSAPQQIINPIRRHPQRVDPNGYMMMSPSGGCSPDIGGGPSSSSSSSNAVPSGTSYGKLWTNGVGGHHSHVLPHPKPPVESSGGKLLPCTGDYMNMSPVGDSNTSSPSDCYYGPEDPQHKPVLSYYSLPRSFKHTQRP

protein kinase C (serine kinase PKCδ): the “phosphorylation of the biotinylated IRS-1 fragment (ALPHAScreen, p-Ser antibody)” value in data set [1] is “can be phosphorylated in the biotinylated state by the serine kinase PKCδ”.

Regarding “human insulin (from UniProt P01308 25-54; P01308 90-110) (ligand)”, the ALPHAScreen readout of tyrosine phosphorylation of 85 nM biotinylated IRS fragment by the insulin-stimulated receptor in data set [2] was 10 nM.
